Results reported in article PMC9837058, “Oncogenic mutations of PIK3CA lead to increased membrane recruitment driven by reorientation of the ABD, p85 and C-terminus” (Nature Communications, 2023).
[ ]: non-standard residue; d: D form. pY = N[C@@H](Cc1ccc(OP(=O)(O)O)cc1)C(=O)O

What was measured:
Assay in all cases: HDX-MS; purified p110α/p85α complex (9 pmol) incubated with pY peptide (1 µl of 50 µM) or buffer for 15 min on ice; exchange 3 s on ice and 3, 30, 300, 3000 s at 20 °C; 20 mM HEPES pH 7.5, 100 mM NaCl
Conditions in all cases: both partners purified
[1] = biological target: T1, p110α-p85α complex (wild type, full length) (human, UniProt P42336 1-1068; P27986 1-724)
T1 construct: p85α, human, residues 1-724; Heterodimer of m1 and m2; also called WT p110α/p85α; full-length p110α-p85α; source: Sf9 (baculovirus), co-expressed, purified (Ni-NTA, Strep column, Q column, gel filtration); not shown: His10, N-terminal, cleaved; 2x Strep, N-terminal, cleaved

[2] = biological target: T2, p110α H1047R-p85α complex (human, UniProt P42336 1-1068; P27986 1-724, H1047R)
T2 construct: p110α, human, full length with the oncogenic mutation H1047R; p85α, human, residues 1-724; Heterodimer of m4 and m2; also called p110α/p85α H1047R; source: Sf9 (baculovirus), co-expressed, purified (Ni-NTA, Strep column, Q column, gel filtration); not shown: His10, N-terminal, cleaved; 2x Strep, N-terminal, cleaved

[3] = biological target: T3, p110α ΔCter (1–1048)-p85α complex (human, UniProt P42336 1-1048; P27986 1-724)
T3 construct: p85α, human, residues 1-724; Heterodimer of m7 and m2; source: Sf9 (baculovirus), co-expressed, purified (Ni-NTA, Strep column, Q column, gel filtration); not shown: His10, N-terminal, cleaved; 2x Strep, N-terminal, cleaved

Measured: binding result

T2 sequence (P42336 whole entry H1047R, chain 1 of 2, the tested form may be a part): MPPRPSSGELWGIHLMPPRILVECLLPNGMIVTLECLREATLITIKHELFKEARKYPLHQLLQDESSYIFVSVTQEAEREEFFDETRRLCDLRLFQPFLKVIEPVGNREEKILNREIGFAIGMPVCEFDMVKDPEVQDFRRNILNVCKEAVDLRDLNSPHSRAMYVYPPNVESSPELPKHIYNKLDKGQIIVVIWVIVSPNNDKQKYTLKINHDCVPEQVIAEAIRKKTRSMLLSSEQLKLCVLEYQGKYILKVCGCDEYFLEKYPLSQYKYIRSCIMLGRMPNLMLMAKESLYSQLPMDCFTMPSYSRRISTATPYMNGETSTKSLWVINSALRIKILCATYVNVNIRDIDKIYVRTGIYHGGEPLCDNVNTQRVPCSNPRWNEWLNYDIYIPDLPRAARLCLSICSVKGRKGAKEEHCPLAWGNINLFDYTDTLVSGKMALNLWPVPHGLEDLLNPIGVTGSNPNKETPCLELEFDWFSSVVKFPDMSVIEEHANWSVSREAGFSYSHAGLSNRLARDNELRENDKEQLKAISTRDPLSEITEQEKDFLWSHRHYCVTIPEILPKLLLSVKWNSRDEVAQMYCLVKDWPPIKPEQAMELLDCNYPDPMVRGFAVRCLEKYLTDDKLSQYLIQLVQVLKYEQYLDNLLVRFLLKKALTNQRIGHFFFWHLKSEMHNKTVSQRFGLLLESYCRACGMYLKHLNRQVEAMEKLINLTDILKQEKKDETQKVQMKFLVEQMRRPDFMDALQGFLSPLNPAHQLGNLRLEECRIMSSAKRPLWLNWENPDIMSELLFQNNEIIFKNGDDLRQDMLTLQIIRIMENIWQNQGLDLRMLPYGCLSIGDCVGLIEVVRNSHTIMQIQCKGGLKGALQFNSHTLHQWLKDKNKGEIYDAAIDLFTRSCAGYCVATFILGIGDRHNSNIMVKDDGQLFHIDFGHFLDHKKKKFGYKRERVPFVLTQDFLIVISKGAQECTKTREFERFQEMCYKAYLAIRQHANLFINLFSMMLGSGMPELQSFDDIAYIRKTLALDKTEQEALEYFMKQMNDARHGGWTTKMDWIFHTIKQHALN
T2 sequence (P27986 whole entry, chain 2 of 2, the tested form may be a part): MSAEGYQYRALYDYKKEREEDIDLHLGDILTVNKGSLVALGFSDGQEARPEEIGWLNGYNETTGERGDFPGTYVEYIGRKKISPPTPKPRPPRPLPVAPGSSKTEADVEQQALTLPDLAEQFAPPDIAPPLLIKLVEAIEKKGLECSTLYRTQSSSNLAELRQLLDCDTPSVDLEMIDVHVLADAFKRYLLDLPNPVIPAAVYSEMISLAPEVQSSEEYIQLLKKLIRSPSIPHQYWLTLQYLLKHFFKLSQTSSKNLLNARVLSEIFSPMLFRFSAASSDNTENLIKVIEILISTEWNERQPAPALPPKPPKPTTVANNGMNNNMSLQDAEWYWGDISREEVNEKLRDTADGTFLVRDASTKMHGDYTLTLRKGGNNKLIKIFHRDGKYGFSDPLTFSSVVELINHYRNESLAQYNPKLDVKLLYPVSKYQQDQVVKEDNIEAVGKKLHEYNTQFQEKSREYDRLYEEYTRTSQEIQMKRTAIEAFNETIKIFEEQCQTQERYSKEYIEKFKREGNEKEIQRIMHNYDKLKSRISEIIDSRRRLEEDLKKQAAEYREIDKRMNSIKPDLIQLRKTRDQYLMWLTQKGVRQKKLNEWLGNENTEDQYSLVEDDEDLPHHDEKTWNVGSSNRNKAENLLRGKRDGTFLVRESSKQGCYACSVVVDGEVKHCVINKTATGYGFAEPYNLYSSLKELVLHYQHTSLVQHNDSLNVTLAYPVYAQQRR
T1 sequence (P42336 whole entry, chain 1 of 2, the tested form may be a part): as the sequence (P42336 whole entry H1047R, chain 1 of 2, the tested form may be a part) above, with R1047H counted along it
T1 sequence (P27986 whole entry, chain 2 of 2, the tested form may be a part): as the sequence (P27986 whole entry, chain 2 of 2, the tested form may be a part) above
T3 sequence (P42336 1-1048, stated change not applied, chain 1 of 2): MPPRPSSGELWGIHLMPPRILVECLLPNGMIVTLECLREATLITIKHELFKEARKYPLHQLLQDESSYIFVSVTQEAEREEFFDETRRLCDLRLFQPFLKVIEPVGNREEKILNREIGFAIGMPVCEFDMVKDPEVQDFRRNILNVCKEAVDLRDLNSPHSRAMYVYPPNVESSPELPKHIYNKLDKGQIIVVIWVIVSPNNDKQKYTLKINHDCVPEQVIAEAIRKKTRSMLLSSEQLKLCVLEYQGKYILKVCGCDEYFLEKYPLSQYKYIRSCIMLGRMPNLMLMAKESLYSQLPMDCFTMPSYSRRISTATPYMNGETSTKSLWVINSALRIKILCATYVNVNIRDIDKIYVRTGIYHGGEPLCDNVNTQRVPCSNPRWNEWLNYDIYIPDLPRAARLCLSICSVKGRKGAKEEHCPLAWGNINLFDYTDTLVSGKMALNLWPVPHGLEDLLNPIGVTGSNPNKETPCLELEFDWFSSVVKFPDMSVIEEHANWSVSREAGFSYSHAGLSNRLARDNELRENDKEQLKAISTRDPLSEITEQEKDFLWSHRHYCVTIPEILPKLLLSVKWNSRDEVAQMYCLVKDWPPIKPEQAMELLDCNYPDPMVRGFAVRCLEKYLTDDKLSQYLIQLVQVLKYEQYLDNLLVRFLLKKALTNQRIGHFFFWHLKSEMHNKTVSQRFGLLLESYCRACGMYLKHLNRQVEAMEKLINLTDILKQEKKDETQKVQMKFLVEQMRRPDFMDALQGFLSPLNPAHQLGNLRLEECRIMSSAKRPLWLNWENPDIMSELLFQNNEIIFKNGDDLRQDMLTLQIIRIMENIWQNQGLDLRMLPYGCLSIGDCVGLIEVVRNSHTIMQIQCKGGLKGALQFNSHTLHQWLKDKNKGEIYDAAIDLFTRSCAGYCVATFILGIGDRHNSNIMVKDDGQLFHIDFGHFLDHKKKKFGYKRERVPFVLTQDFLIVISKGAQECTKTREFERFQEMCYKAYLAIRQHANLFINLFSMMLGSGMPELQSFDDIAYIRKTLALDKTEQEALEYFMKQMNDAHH
T3 sequence (P27986 whole entry, stated change not applied, chain 2 of 2, the tested form may be a part): as the sequence (P27986 whole entry, chain 2 of 2, the tested form may be a part) above

B1: PDGFR bis-phosphorylated pY peptide (PDGFR residues 735–767, pY740, pY751) (peptide)
peptide: H-ESDGG[pY]MDMSKDESID[pY]VPMLDMKGDIKYADIE-OH
SMILES: CC[C@H](C)[C@H](NC(=O)[C@H](CC(=O)O)NC(=O)[C@H](C)NC(=O)[C@H](Cc1ccc(O)cc1)NC(=O)[C@H](CCCCN)NC(=O)[C@@H](NC(=O)[C@H](CC(=O)O)NC(=O)CNC(=O)[C@H](CCCCN)NC(=O)[C@H](CCSC)NC(=O)[C@H](CC(=O)O)NC(=O)[C@H](CC(C)C)NC(=O)[C@H](CCSC)NC(=O)[C@@H]1CCCN1C(=O)[C@@H](NC(=O)[C@H](Cc1ccc(OP(=O)(O)O)cc1)NC(=O)[C@H](CC(=O)O)NC(=O)[C@@H](NC(=O)[C@H](CO)NC(=O)[C@H](CCC(=O)O)NC(=O)[C@H](CC(=O)O)NC(=O)[C@H](CCCCN)NC(=O)[C@H](CO)NC(=O)[C@H](CCSC)NC(=O)[C@H](CC(=O)O)NC(=O)[C@H](CCSC)NC(=O)[C@H](Cc1ccc(OP(=O)(O)O)cc1)NC(=O)CNC(=O)CNC(=O)[C@H](CC(=O)O)NC(=O)[C@H](CO)NC(=O)[C@@H](N)CCC(=O)O)[C@@H](C)CC)C(C)C)[C@@H](C)CC)C(=O)N[C@@H](CCC(=O)O)C(=O)O
notes: PDGFR residues 735-767; human has V where this peptide has I at two places; also called phosphopeptide; source: synthetic peptide; bought: New England Peptide
binds: [1] | [2] | [3]
